Consider five molecules from patent publication US20190375846A1 (ULTRAHUMAN ONE, published 2019).

Experiment [1] deals with T1, human GITR at the cell surface (human, UniProt Q9Y5U5 26-241).
T1 construct: whole, on cells; The cell type is named in the assay field of each row; also called human GITR+ cells; CHO-K1 human GITR+ cells
T1 sequence (looked up): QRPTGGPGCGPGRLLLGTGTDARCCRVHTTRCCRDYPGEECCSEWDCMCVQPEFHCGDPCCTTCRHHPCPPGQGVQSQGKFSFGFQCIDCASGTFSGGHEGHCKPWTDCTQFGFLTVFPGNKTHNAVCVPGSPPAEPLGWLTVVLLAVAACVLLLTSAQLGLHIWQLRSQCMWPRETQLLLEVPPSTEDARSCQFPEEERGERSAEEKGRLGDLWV
Description: flow cytometry on CHO-K1 human GITR+ cells; competitor: soluble human GITRL.

For experiment [2], the target named is T1, human GITR at the cell surface. Nature of the experiment: flow cytometry, human GITR-transfected murine blastoma cells, 10,000-13.7 ng/ml. On the procedure:
Concentration-dependent binding to GITR at the cell surface was analysed using flow cytometry.

Experiment [3] shares this target. Nature of the experiment: cell-based or functional assay.
For experiment [4], the target named is cynomolgus monkey GITR at the cell surface (cynomolgus monkey). Description: cell-based or functional assay.
A further experiment concerns the target T2, hEpCAM-Fc (human, UniProt P16422).
T2 construct: recombinant Fc fusion; Member of the panel m8
T2 sequence (fusion chain, looked up): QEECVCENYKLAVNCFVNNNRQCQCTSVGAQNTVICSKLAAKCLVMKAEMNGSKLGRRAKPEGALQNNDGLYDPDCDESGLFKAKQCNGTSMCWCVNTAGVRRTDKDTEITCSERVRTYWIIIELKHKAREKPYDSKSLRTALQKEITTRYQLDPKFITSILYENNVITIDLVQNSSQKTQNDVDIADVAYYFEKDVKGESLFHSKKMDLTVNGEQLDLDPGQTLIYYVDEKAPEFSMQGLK
Description: direct ELISA on coated protein, IgG at 10 µg/ml, OD 450 nm. The procedure: (§1) Off-target homologue binding risk for mVH/mVL (FIG. 8A), VH3/VL2 (FIG. 8B) and lead engineered IgG clones G-G10 (FIG. 8C), I-C2 (FIG. 8D) and D-A6 (FIG. 8E) was examined by direct ELISA on GITR-Fc orthologs and a panel of 13 human TNFRSF and immunoglobulin superfamily proteins (as labelled on each X-axis). Binding to human, cyno and murine GITR-Fcs (h/c/mGITR-Fc) was performed at an IgG concentration of 1 μg/ml. Binding to all other proteins was performed at an IgG concentration of 10 μg/ml.
(§2) Anti-GITR antibodies were tested for polyreactivity by ELISA. Purified, recombinant, target and non-target antigens were coated in 96-well Nunc maxisorp plates at 100 ng per well in carbonate buffer, at 4° C. overnight. Plates were then washed 3× with PBS, blocked with 1% BSA in PBS, then washed 3× with PBS-Tween20. A dilution series of primary antibodies was then applied, plates were washed 3× with PBS-Tween20 followed by application of goat anti-human kappa chain-HRP 1:4,000 secondary antibody. Wells were then washed 3× with PBS-Tween20 and 2× with PBS, 100 μl TMB peroxidase substrate was added per well, the was reaction stopped by adding 100 μl 2M H₂SO₄ and absorbances were read at 450 nm. Anti-GITR antibodies were also tested for binding specificity by flow cytometry. HuT78 cells were activated by incubation with anti-CD3/anti-CD28 beads for 3 days. Naïve cells were incubated in media alone. At the end of the incubation the cells were harvested and the beads removed from the activated cells using a magnet. Cells were incubated with viability dye and then stained with anti-GITR antibodies at 4° C. […] Binding of VH1/VI1 and D-A6 IgG1 proteins were detected by subsequent incubation with a PE labelled goat anti-human IgG. Cells were fixed with 4% PFA before being stored in PBS at 4° C. overnight. Cells were analysed the next day using a BD Fortessa flow cytometer running Diva software. Analysis was performed using FlowJo software.
(In an ELISA, binding on a coated surface is turned into a signal by an enzyme label.)

The target in the next experiment is T3, hDR6-Fc (human, UniProt O75509).
T3 construct: recombinant Fc fusion; Member of the panel m8
T3 sequence (fusion chain, looked up): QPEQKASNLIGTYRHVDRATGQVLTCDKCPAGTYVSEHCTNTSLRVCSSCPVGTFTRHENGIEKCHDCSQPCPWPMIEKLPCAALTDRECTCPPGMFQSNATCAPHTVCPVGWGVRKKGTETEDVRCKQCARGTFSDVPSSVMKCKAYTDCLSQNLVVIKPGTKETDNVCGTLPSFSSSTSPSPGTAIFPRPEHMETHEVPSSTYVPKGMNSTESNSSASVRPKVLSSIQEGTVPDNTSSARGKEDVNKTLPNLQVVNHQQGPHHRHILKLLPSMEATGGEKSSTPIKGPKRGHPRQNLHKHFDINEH
The experiment is described as above. On the procedure:
as §1, §2

For the next experiment, the target named is T4, hOX40-Fc.
T4 construct: Member of the panel m8; not shown: Fc part and any linker
T4 chain: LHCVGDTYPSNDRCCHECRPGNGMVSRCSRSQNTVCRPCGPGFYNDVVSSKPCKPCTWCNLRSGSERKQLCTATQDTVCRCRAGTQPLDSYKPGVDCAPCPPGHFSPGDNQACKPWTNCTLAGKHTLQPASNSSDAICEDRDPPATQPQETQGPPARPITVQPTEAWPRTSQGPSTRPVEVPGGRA
Described as above. The procedure:
as §1, §2

A further experiment has as its target T5, hCD4 (human, UniProt P01730).
T5 construct: purified recombinant protein; Member of the panel m8
Described as above. The procedure:
as §1, §2

B1: D-A6 IgG1 (antibody, V domains shown)
VH: EVQLVESGGGLVQPGGSLRLSCAASGFSLSTSGYGVGWVRQAPGKGLEWLAHIWWDDDKYYVDSVKGRFTISRDNAKNSLYLQMNSLRAEDTAVYYCARTRQYFPFAYWGQGTLVTVSS
VL: EIVLTQSPATLSLSPGERATLSCRASQSVGSNLAWYQQKPGQAPRLLIYSASYRYTGIPARFSGSGSGTDFTLTISSLEPEDFAVYYCQQYSTDPLTFGGGTKVEIK
notes: Human IgG1
For the molecule B1, the “fold reduction of binding signal in the presence of 10 µg/ml soluble GITRL” value in experiment [1] was above 10 fold. Also, in experiment [2], the “concentration at maximum MFI” value was around 1110 ng/mL. The “EC50 of FcγRIIIa activation, Promega ADCC reporter assay, CHO-K1 target cells expressing human GITR” value in experiment [3] is 15.4 nM. Further, the “potency against VH1/VL1 IgG1, ADCC reporter assay on human GITR CHO-K1 cells” value in experiment [3] was determined as 2 fold. The “EC50 of FcγRIIIa activation, Promega ADCC reporter assay, CHO-K1 target cells expressing cyno GITR” value in experiment [4] is 57.9 nM. In addition, in experiment [4], the “potency against VH1/VL1 IgG1, ADCC reporter assay on cyno GITR CHO-K1 cells” value was determined as 2 fold. Moreover, the binding result with hEpCAM-Fc, in the experiment with hDR6-Fc, with hOX40-Fc and with hCD4 was “no binding (tested: 10 µg/ml)” in each case.

B2: VH3/VL2 IgG1 (antibody, V domains shown)
VH: EVQLVESGGGLVQPGGSLRLSCAASGFSLSTSGMGVGWVRQAPGKGLEWLAHIWWDDDKYYVDSVKGRFTISRDNAKNSLYLQMNSLRAEDTAVYYCARTRRYFPFAYWGQGTLVTVSS
VL: EIVLTQSPATLSLSPGERATLSCRASQNVGTNVAWYQQKPGQAPRLLIYSASYRYSGIPARFSGSGSGTDFTLTISSLEPEDFAVYYCQQYNTDPLTFGGGTKVEIK
notes: Human IgG1; template of the mutagenesis library; also called G-VH3/VL2; VH3 family
Take B2: the “concentration at maximum MFI” value in experiment [2] is around 1110 ng/mL. In addition, the binding result with hEpCAM-Fc, with hDR6-Fc, with hOX40-Fc and with hCD4 was “no binding (tested: 10 µg/ml)” in each case.

B3: I-C2 IgG1 (antibody, V domains shown)
VH: EVQLVESGGGLVQPGGSLRLSCAASGFSLSTSGYGVGWVRQAPGKGLEWLAHIWWDDDKYYVDSVKGRFTISRDNAKNSLYLQMNSLRAEDTAVYYCARTRLYFPFAYWGQGTLVTVSS
VL: EIVLTQSPATLSLSPGERATLSCRASQNVGSNLAWYQQKPGQAPRLLIYSASNRYSGIPARFSGSGSGTDFTLTISSLEPEDFAVYYCQQYSTDPLTFGGGTKVEIK
notes: Human IgG1
Regarding B3, the “concentration at maximum MFI” value in experiment [2] was around 1110 ng/mL. The binding result with hEpCAM-Fc, in the experiment with hDR6-Fc, with hOX40-Fc and with hCD4 was “no binding (tested: 10 µg/ml)” each time.

B4: G-G10 IgG1 (antibody, V domains shown)
VH: EVQLVESGGGLVQPGGSLRLSCAASGFSLSTFGYGVGWVRQAPGKGLEWLAHIWWDDDKYYVDSVKGRFTISRDNAKNSLYLQMNSLRAEDTAVYYCARTRQYFPFAYWGQGTLVTVSS
VL: EIVLTQSPATLSLSPGERATLSCRASQSVGTNLAWYQQKPGQAPRLLIYYASYRYTGIPARFSGSGSGTDFTLTISSLEPEDFAVYYCQQYSNDPLTFGGGTKVEIK
notes: Human IgG1
On to B4, for which the “concentration at maximum MFI” value in experiment [2] was around 1110 ng/mL. In addition, the binding result with hEpCAM-Fc, with hDR6-Fc, in the experiment with hOX40-Fc and with hCD4 was “no binding (tested: 10 µg/ml)” each time.

B5: chimeric anti-GITR IgG1 mVH/mVL (6C8 murine v-domains) (antibody, V domains shown)
VH: QVTLKESGPGILKPSQTLSLTCSFSGFSLSTSGMGVGWIRQPSGKGLEWLAHIWWDDDKYYNPSLKSQLTISKDTSRNQVFLKITSVDTADAATYYCARTRRYFPFAYWGQGTLVTVSS
VL: DIVMTQSQKFMSTSVGDRVSVTCKASQNVGTNVAWYQQKPGQSPKALIYSASYRYSGVPDRFTGSGSGTDFTLTINNVHSEDLAEYFCQQYNTDPLTFGAGTKLEIK
notes: Full-length human IgG1, kappa; also called GITR-mVH/mVL; chimeric IgG
B5: the “concentration at maximum MFI” value in experiment [2] was around 1110 ng/mL. Moreover, the binding result in the experiment with hEpCAM-Fc, with hDR6-Fc, with hOX40-Fc and with hCD4 was “no binding (tested: 10 µg/ml)” in each case.
